# Measurements taken from article PMC3594189, “Cellular Catabolism of the Iron-Regulatory Peptide Hormone Hepcidin” (PLoS ONE, 2013).
# No end group written: not given here.
# Key:
# [1] = molecular target: T1, ECR293 cells expressing Fpn-GFP (Mus musculus, UniProt Q9JHI9); format: cell-based
# T1 construct: expressed in transfected cells; host or cells: ECR293 (ECR-Fpn) cells, ponasterone-inducible
# T1 sequence (Q9JHI9 1-570): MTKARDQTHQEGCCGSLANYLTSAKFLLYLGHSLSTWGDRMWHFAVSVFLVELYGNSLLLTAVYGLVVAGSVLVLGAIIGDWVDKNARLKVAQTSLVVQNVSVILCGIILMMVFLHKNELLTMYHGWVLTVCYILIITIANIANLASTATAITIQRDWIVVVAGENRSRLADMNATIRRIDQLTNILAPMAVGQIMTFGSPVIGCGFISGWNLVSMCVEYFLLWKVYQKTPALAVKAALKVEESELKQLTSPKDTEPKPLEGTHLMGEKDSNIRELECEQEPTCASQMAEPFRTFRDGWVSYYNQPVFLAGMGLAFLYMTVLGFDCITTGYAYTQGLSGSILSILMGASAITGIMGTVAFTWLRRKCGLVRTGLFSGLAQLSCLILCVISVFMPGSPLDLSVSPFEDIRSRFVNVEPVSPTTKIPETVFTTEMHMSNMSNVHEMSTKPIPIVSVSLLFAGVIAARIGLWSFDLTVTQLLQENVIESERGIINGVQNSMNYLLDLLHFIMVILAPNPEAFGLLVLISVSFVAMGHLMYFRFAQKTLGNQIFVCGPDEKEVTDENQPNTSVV
# Method: ECR-Fpn cells were plated on poly-D-lysine coated plates in the presence of 20 µM FAC, with or without 10 µM ponasterone, and incubated at 37°C. After 24 h, cells were washed with PBS and 1 ml of serum free media was added. The cells were treated with 5×10^5 cpm of ^125I–hepcidin for 2 h (loading period) at 37°C. After 2 h the cells were washed 3 times with DMEM/10% fetal bovine serum to remove unbound ^125I-hepcidin and 1 ml serum-free media with 20 µM FAC was added to all wells. Cells were incubated at 37°C for 5 min, 4, 8 and 24 h after loading. To prevent lysosomal acidification and proteolysis, 100 nM bafilomycin was added to assigned wells for 24 h. The supernatant was collected, its radioactivity quantified by a gamma counter, and an aliquot subjected to HPLC analysis. The cells were washed once and centrifuged for 2 min at 12,000xg through a silicone oil layer (Nyosil M25, Nye, Fairhaven, MA). The radioactivity in cell pellets was determined by gamma counting (Beckman, Fullerton, CA).
# Aliquots of the supernatants were analyzed by reversed-phase high-performance liquid chromatography (RP-HPLC) on Vydac C18 column (218TP54; Waters). Fractions were eluted over 30 minutes with an acetonitrile gradient (1 fraction per minute) and their radioactivity determined by gamma counting.
# [2] = molecular target: T1, ECR293 cells expressing Fpn-GFP; format: cell-based; conditions: for effect of lysosomal inhibitor on degradation of both hepcidin and ferroportin: chloroquine 100 µM or bafilomycin 100 nM for 20 h after 4 h TR-Hep loading, flow cytometry
# Method: ECR-Fpn cells were plated on poly-D-lysine-coated plates in the presence of 20 µM FAC, with or without 10 µM ponasterone. After 24 h, ponasterone was washed off, and cells were loaded with 1 µg/ml TR-Hep for 4 h. After 4 h, cells were washed with PBS, fresh media was added and cells were treated with or without lysosomal inhibitors chloroquine (100 µM) and bafilomycin (100 nM). Twenty hours after the addition of inhibitors, cells were trypsinized and resuspended at 1×10^6 cells/ml, and the intensity of red and green fluorescence was analyzed by flow cytometry at UCLA Jonsson Comprehensive Cancer Center and Center for AIDS Research Flow Cytometry Core Facility (supported by NIH awards CA-16 042 and AI-28 697, the UCLA AIDS institute, and the UCLA School of Medicine). Flow cytometry was performed on FACSVantage SE sorting flow cytometer with digital electronics (Becton Dickinson, San Jose, CA) and analyzed with FACSDiva software (Becton Dickinson). Cells not induced with ponasterone were used to establish a gate to exclude background fluorescence. Loss of cellular Fpn-GFP was quantified as % of green fluorescence in induced cells not treated with hepcidin. Degradation of cellular TR-Hep was measured as % of red fluorescence in induced cells treated with TR-Hep for 4 h.
# [3] = cited from earlier work
# Excerpt: This study was the first to examine the fate of hepcidin from its initial binding to ferroportin to its cellular catabolism. We show here that hepcidin is internalized together with ferroportin and that both are degraded in lysosomes. Because of the small size of hepcidin (∼2.7 kD) and its weak binding to plasma proteins, glomerular filtration and proteolysis in proximal tubules is thought to be the major mechanism for hepcidin clearance from blood. Detectable concentrations of hepcidin in urine, indicative of peptide that escaped proteolysis in the proximal tubules, are consiste ...
# [4] = molecular target: T2, Fpn-GFP expressing ECR293 cells (ferroportin) (Mus musculus, UniProt Q9JHI9); test: Temperature and pH dependent 125I-hepcidin binding/internalization assay; format: cell-based
# T2 construct: expressed in transfected cells; host or cells: ECR293 (ECR-Fpn) cells, ponasterone-inducible
# T2 sequence (Q9JHI9 1-570): T1 sequence (Q9JHI9 1-570)
# Method: ^125I-hepcidin (10^6 cpm, specific activity ∼10^7 cpm/µg) was added to ECR-Fpn cells plated on poly-D-lysine coated plates in the presence of 20 µM FAC, with or without 10 µM ponasterone. Cells were incubated with radiolabeled hepcidin at different temperatures (0, 15, 23 and 37°C) for 1 hour. For pH experiments, growth medium was replaced with media adjusted to pH of 2, 4, 5, 6, 7, 8 and 9 (without additional FAC) and radiolabeled hepcidin was added for 1 h at 37°C. Cells were washed with phosphate-buffered saline (PBS) to remove unbound radioactive hepcidin and centrifuged for 2 minutes at 12,000xg through a silicone oil layer (Nyosil M25; Nye). The radioactivity in cell pellets was determined by gamma counting. The temperature-dependence data are expressed in counts-per-minute (cpm), whereas pH-dependence data were normalized because of the variability in absolute cpm values between experiments and expressed as % of radioactivity at pH 7. The radioactivity of uninduced cells subtracted as background for each point.
# Fpn-GFP expressing cells = molecular target: T3, Fpn-GFP expressing cells (Mus musculus, UniProt Q9JHI9); test: Confocal microscopy co-localization of TR-Hep with Fpn-GFP; format: cell-based
# T3 construct: expressed in transfected cells; host or cells: ECR293 (ECR-Fpn) cells, ponasterone-inducible
# T3 sequence (Q9JHI9 1-570): T1 sequence (Q9JHI9 1-570)
# Method: ECR-Fpn cells were plated in a 12-well plate on 12 mm poly-D-lysine coated round coverslips (Becton Dickinson, Franklin Lakes, NJ) in the presence of 20 µM ferric ammonium citrate (FAC) with or without 10 µM ponasterone. FAC is added to the medium to prevent cellular iron depletion caused by prolonged Fpn-GFP overexpression. After 24 h, ponasterone was washed off, and cells were treated with 1 µg/ml TR-Hep at 37°C protected from light. After 1 hour, cells were washed with PBS two times and the coverslip was placed on a slide, sealed with clear nail polish and immediately analyzed. Images were scanned at the UCLA CNSI Advanced Light Microscopy Facility and the BRI Cell Imaging Facility on a Leica TCS-SP MP Confocal and Multiphoton Inverted Microscope (Heidelberg, Germany) equipped with an argon laser (488 nm blue excitation: JDS Uniphase), a 561 nm (green) diode laser (DPSS: Melles Griot), and a two photon laser setup consisting of a Spectra-Physics Millenia×532 nm green diode pump laser and a Tsunami Ti-Sapphire picosecond pulsed infrared laser tuned at 768 nm for UV excitation. Images were acquired using LCS Lite software (Leica Confocal Software, Leica Microsystems, Manheim, Germany).
# ferroportin = conditions: naturally occurring urinary forms; cited from earlier work
compound,measurement,setting,value
"CO/C1=C\C(C)=C\[C@@H](C)[C@@H](O)[C@@H](C)C/C(C)=C/C=C/[C@H](OC)[C@@H]([C@@H](C)[C@@H](O)[C@H](C)[C@@]2(O)C[C@@H](O)[C@H](C)[C@@H](C(C)C)O2)OC1=O [bafilomycin, reference compound]",effect of bafilomycin on cellular radioactivity,"[1]; 100 nM bafilomycin for 24 h after 125I-hepcidin loading, gamma counting of cell pellets",increased the retention of radioactivity in cells
same,effect of lysosomal inhibitor on degradation of both hepcidin and ferroportin,[2],completely prevented the degradation
CCN(CC)CCCC(C)Nc1ccnc2cc(Cl)ccc12 (stereo not drawn) [chloroquine],effect of lysosomal inhibitor on degradation of both hepcidin and ferroportin,[2],completely prevented the degradation
"Hepcidin: 25-amino acid peptide hormone, principal regulator of plasma iron concentrations; synthetic hepcidin from Peptides International",binding to plasma proteins,[3],weak binding
same,specific binding at pH lower than 6,"[4]; pH 2, 4, 5, 1 h at 37°C, uninduced-cell background subtracted",did not bind specifically
same,binding to ferroportin at pH 9,"[4]; pH 9 among pH 2, 4, 5, 6, 7, 8 and 9, 1 h at 37°C, normalized to pH 7",highest binding
TR-Hep: synthetic hepcidin labeled with Texas Red-X succinimidyl ester,co-localization of red hepcidin with green ferroportin in vesicles,"Fpn-GFP expressing cells; 1 µg/ml TR-Hep, 1 h, 37°C, induced cells, confocal microscopy",nearly complete co-localization
same,red fluorescence in uninduced cells,"Fpn-GFP expressing cells; uninduced cells treated with TR hepcidin, data not shown",no detectable red fluorescence
same,degradation of Fpn-GFP after TR-Hep,"[2]; 24 h after addition of 1 µg/ml TR-Hep, green fluorescence by flow cytometry",nearly completely degraded
"^125I-hepcidin: synthetic hepcidin with M21Y substitution iodinated with 125I (DTHFPICIFCCGCCHRSKCGYCCKT; disulfide (positions not given here); not fully specified (bridges); ends not checked; also: iodinated with 125I, site not given here; UniProt P81172 60-84, looked up, variant M21Y)",radioactivity in cell pellets after loading,[1],almost complete loss of radioactivity
same,binding of 125I-hepcidin to Fpn-GFP expressing cells at temperatures below 37°C,"[4]; 1 h at 0, 15, 23 and 37°C, cell-bound radioactivity by gamma counting (cpm), at least three experiments",decreased
"hepcidin-20: degradation product of hepcidin-25 detected in urine, truncated at the N-terminus by 5 amino acids (ICIFCCGCCHRSKCGMCCKT; disulfide (positions not given here); ends not checked; also: disulfide bridges, pairing not given here; UniProt P81172 65-84, looked up)",activity relative to hepcidin-25,ferroportin,much less active than hepcidin-25
